The record followed here is EP4613276A2 (Actym Therapeutics, Inc., dated 2025).

The target in assay [1] is CD3 on Jurkat-Lucia™ NFAT cells (Homo sapiens (Human)) (UniProt P07766). As to the kind of experiment: flow cytometry on Jurkat-Lucia NFAT cells, concentrated supernatant, BiTE detected with anti-FLAG-APC (anti-FLAG-APC only: 1519).
Assay [2] deals with CD19 on Raji cells (UniProt P15391). As to the kind of experiment: flow cytometry on Raji cells, concentrated supernatant, BiTE detected with anti-FLAG-APC (anti-FLAG-APC only: 1439).
Chain of CD19 on Raji cells (P15391 20-556 limits assumed): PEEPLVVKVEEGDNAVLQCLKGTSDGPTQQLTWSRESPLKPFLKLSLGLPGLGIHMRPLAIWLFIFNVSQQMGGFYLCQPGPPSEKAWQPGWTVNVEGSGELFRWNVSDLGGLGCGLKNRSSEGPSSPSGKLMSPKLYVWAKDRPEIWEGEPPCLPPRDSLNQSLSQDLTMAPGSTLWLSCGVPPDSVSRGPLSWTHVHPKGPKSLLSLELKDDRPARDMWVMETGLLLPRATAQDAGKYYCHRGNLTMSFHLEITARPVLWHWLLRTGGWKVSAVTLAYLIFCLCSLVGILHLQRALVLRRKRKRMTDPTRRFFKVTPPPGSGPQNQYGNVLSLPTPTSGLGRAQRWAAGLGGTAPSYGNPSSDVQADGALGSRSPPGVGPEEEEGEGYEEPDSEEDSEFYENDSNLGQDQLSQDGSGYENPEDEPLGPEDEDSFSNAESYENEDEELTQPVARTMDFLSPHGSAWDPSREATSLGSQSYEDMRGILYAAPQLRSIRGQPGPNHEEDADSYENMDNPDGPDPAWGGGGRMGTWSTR
The target in assay [3] is CD3 on Jurkat-Lucia™ NFAT cells (Homo sapiens (Human)) (UniProt P07766). As to the kind of experiment: cell-based or functional assay.
For assay [4] the target is unchanged. The assay can be described thus: flow cytometry on Jurkat-Lucia NFAT cells, BiTE detected with anti-FLAG-APC (anti-FLAG-APC only: 1519).
Assay [5] concerns the target CD19 on Raji cells (UniProt P15391). As to the kind of experiment: flow cytometry on Raji cells, BiTE detected with anti-FLAG-APC (anti-FLAG-APC only: 1439).
Assay [6] addresses mouse TGF-β1 (R&D Systems) (mouse) (UniProt P04202). As to the kind of experiment: direct ELISA with mouse TGF-β1 on HEK293T supernatant (media control 0.041 ± 0.002).
Assay [7] has the same target. As to the kind of experiment: direct ELISA with mouse TGF-β1 on concentrated HEK293T supernatant (media control 0.041 ± 0.002).
For assay [8], the target named is recombinant murine CTLA-4-human IgG1 Fc chimera (R&D Systems) (mouse; human) (UniProt P09793). As to the kind of experiment: competitive ELISA: HEK293T supernatant mixed with 10 ng/ml murine CTLA-4-human IgG1 Fc, on coated mouse CD80 (competitor); anti-human IgG1-HRP detection.
For assay [9] the target is unchanged. As to the kind of experiment: competitive ELISA: HEK293T supernatant mixed with 10 ng/ml murine CTLA-4-human IgG1 Fc, on coated mouse CD86 (competitor); anti-human IgG1-HRP detection.
Assay [10] has as its target T1, recombinant murine CTLA-4-human IgG1 Fc chimera (R&D Systems) (mouse; human, UniProt P09793 36-162; P01857 100-330 = IgG part, limits assumed).
T1 construct: Bought reagent; also called mouse CTLA-4-Fc
The assay can be described thus: direct ELISA of transfected HEK293T supernatant on mouse CTLA-4-Fc; the grade is printed as the payload's expression level.

Chain of CD3 on Jurkat-Lucia™ NFAT cells (Homo sapiens (Human)) (P07766 23-207 limits assumed, form in doubt, chain 1 of 3): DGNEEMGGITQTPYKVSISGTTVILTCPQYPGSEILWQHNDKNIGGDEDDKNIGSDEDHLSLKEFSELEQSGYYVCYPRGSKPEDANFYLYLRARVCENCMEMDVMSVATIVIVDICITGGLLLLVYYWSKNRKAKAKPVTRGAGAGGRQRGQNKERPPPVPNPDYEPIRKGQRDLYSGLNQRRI
Chain of CD3 on Jurkat-Lucia™ NFAT cells (Homo sapiens (Human)) (delta, as listed by the source limits assumed, form in doubt, chain 2 of 3): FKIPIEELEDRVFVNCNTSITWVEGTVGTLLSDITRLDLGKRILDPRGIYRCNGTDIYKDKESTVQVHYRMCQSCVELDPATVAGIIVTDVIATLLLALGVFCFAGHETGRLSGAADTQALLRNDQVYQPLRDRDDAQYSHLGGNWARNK
Chain of CD3 on Jurkat-Lucia™ NFAT cells (Homo sapiens (Human)) (gamma, as listed by the source limits assumed, form in doubt, chain 3 of 3): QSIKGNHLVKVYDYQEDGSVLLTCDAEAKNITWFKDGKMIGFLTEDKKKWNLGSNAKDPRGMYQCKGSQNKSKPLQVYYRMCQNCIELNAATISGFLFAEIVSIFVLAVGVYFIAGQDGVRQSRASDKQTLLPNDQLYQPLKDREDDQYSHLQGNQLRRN
Chain of mouse TGF-β1 (R&D Systems) (mouse) (P04202 279-390 limits assumed): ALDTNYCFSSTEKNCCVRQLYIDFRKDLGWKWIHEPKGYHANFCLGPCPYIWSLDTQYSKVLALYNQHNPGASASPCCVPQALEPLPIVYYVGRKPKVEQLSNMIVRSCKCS

The molecule “CD3xCD19 bispecific T-cell engager (BiTE®), containing a FLAG tag and a His tag (bispecific antibody)” showed a Mean Fluorescence Intensity (MFI) of APC+ Cells in assay [1] of 14100 MFI. Also, in the assay with CD19 on Raji cells [2], the Mean Fluorescence Intensity (MFI) of APC+ Cells came to 16000 MFI. In assay [3], the Luminescence (NFAT reporter), 1 Raji: 1 Jurkat, 6 hour time point, CD3xCD19 BiTE® turned out to be 2060 Luminescence; the Luminescence (NFAT reporter), 1 Raji: 1 Jurkat, 6 hour time point, concentrated CD3xCD19 BiTE® amounted to 4340 Luminescence; the Luminescence (NFAT reporter), 1 Raji: 1 Jurkat, 24 hour time point, CD3xCD19 BiTE® came to 6020 Luminescence; the Luminescence (NFAT reporter), 1 Raji: 1 Jurkat, 24 hour time point, concentrated CD3xCD19 BiTE® came out at 18600 Luminescence. Also, in [3], the Luminescence (NFAT reporter), 2 Raji: 1 Jurkat, 6 hour time point, CD3xCD19 BiTE® was determined as 3440 Luminescence; the Luminescence (NFAT reporter), 2 Raji: 1 Jurkat, 6 hour time point, concentrated CD3xCD19 BiTE® was found to be 12100 Luminescence; the Luminescence (NFAT reporter), 2 Raji: 1 Jurkat, 24 hour time point, CD3xCD19 BiTE® was determined as 11300 Luminescence; the Luminescence (NFAT reporter), 2 Raji: 1 Jurkat, 24 hour time point, concentrated CD3xCD19 BiTE® came out at 47200 Luminescence. The same molecule returned a Mean Fluorescence Intensity (MFI) of APC+ Cells in assay [4] of 4580 MFI. The Mean Fluorescence Intensity (MFI) of APC+ Cells in the assay with CD19 on Raji cells [5] was determined as 7410 MFI.

With “Soluble mouse TGFβ receptor II-Fc (Fc fusion)”, the Absorbance at 450 nm (absorbance at 450 nm) in assay [6] was 1.51; in [7], 1.52.

Consider “anti-CTLA-4 scFv (ipilimumab scFv antibody fragment)”, for which, in assay [8], the % CD80 Blockade Activity was found to be 7%. Also, the % CD86 Blockade Activity in [9] amounted to 32.5%.

B1: anti-murine CTLA-4 scFv (derived from the 9D9 clone) (scFv)
scFv: DIVMTQTTLSLPVSLGDQASISCRSSQSIVHSNGNTYLEWYLQKPGQSPKLLIYKVSNRFSGVPDRFSGSGSGTDFTLKISRVEAEDLGVYYCFQGSHVPYTFGGGTKLEIKGGGGSGGGGSGGGGSEAKLQESGPVLVKPGASVKMSCKASGYTFTDYYMNWVKQSHGKSLEWIGVINPYNGDTSYNQKFKGKATLTVDKSSSTAYMELNSLTSEDSAVYYCARYYGSWFAYWGQGTLVTVSS
notes: Tested as HEK293T supernatant; also called anti-muCTLA-4 scFv
B1: in [10], the binding result is “binds”.

B2: anti-murine CTLA-4 scFv-Fc (derived from the 9D9 clone, mouse IgG2a Fc) (Fc fusion)
chain: DIVMTQTTLSLPVSLGDQASISCRSSQSIVHSNGNTYLEWYLQKPGQSPKLLIYKVSNRFSGVPDRFSGSGSGTDFTLKISRVEAEDLGVYYCFQGSHVPYTFGGGTKLEIKGGGGSGGGGSGGGGSEAKLQESGPVLVKPGASVKMSCKASGYTFTDYYMNWVKQSHGKSLEWIGVINPYNGDTSYNQKFKGKATLTVDKSSSTAYMELNSLTSEDSAVYYCARYYGSWFAYWGQGTLVTVSSEPRGPTIKPCPPCKCPAPNLLGGPSVFIFPPKIKDVLMISLSPIVTCVVVDVSEDDPDVQISWFVNNVEVHTAQTQTHREDYNSTLRVVSALPIQHQDWMSGKEFKCKVNNKDLPAPIERTISKPKGSVRAPQVYVLPPPEEEMTKKQVTLTCMVTDFMPEDIYVEWTNNGKTELNYKNTEPVLDSDGSYFMYSKLRVEKKNWVERNSYSCSVVHEGLHNHHTTKSFSRTPGK
notes: Tested as HEK293T supernatant; also called anti-muCTLA-4 scFv-Fc
As for B2, the binding result in assay [10] was “binds”.
